One assay addresses T1, rat Y2 receptor (rat, UniProt Q9ERC0 1-381).
T1 construct: whole, on cells; also called rY2
T1 sequence: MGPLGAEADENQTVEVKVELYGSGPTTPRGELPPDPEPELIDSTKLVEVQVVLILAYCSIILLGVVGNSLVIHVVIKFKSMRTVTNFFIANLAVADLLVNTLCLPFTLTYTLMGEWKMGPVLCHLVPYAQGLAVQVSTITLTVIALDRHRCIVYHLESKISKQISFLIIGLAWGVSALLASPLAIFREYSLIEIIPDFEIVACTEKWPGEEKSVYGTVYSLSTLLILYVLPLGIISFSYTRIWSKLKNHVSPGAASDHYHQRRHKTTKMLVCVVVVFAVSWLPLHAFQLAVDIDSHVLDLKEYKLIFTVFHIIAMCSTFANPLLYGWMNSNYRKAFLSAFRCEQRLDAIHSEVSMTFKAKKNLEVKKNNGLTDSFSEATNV
Kind of assay: 125I-PYY displacement, COS-7 membranes.

Assay [1] deals with T2, human Y5 receptor (human, UniProt Q15761 1-445).
T2 construct: also called CG-19; hY5
T2 sequence: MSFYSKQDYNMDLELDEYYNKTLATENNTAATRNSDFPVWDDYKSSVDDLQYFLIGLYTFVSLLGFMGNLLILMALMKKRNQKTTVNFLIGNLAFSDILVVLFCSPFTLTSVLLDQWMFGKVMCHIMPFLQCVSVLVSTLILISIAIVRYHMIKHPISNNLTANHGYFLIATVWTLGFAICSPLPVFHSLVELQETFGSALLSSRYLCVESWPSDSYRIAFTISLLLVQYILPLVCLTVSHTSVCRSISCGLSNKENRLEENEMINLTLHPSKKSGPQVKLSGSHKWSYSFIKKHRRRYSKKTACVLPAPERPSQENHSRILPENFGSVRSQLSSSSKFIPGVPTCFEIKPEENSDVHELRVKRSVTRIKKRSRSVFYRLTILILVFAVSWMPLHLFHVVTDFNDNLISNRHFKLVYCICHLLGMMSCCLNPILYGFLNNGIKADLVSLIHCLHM
Kind of assay: 125I-PYY3-36 displacement, LM(tk-) membranes.

Assay [2] addresses T3, rat Y4 receptor (rat, UniProt Q63447 1-375).
T3 construct: whole, on cells; also called rY4
Kind of assay: 125I-PYY displacement, COS-7 membranes.

Assay [3] deals with T4, human Y4 receptor (human, UniProt P50391 1-375).
T4 construct: whole, on cells
Kind of assay: 125I-PYY displacement, COS-7 membranes.

Assay [4] addresses T4, human Y4 receptor. Kind of assay: 125I-PYY displacement, COS-7 membranes. This is another data set of the same source.
Assay [5] addresses T2, human Y5 receptor. Kind of assay: 125I-PYY displacement, COS-7 membranes.
Assay [6] deals with T5, rat hypothalamic Y5 receptor (rat, UniProt Q63634 1-445).
T5 construct: Expressed transiently in COS-7 or stably in 293 cells; also called rat Y5; CG-18
T5 sequence: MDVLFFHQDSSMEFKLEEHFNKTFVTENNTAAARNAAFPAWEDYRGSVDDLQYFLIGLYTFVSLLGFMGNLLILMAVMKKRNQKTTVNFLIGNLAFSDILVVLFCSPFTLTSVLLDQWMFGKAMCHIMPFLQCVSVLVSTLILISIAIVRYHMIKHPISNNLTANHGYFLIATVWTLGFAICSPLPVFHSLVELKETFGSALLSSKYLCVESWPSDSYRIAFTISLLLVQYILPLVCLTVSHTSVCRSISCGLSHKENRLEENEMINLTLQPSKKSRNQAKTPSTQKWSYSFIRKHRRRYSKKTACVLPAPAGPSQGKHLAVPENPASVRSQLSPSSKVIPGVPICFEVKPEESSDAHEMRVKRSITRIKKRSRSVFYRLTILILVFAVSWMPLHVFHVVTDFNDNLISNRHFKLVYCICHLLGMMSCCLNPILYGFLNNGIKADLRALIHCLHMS
Kind of assay: 125I-PYY displacement, COS-7 membranes.

In assay [7] the target is T2, human Y5 receptor. Kind of assay: 125I-PYY displacement, COS-7 membranes. This is another data set of the same source.
Assay [8] deals with T5, rat hypothalamic Y5 receptor. Kind of assay: 125I-PYY displacement, COS-7 membranes. The source holds these as a separate data set.
Assay [9] has the same target. Kind of assay: cell-based or functional assay.
For another assay, the target named is T6, rat Y1 receptor (rat, UniProt P21555 1-382).
T6 construct: whole, on cells; also called rY1
T6 sequence (looked up): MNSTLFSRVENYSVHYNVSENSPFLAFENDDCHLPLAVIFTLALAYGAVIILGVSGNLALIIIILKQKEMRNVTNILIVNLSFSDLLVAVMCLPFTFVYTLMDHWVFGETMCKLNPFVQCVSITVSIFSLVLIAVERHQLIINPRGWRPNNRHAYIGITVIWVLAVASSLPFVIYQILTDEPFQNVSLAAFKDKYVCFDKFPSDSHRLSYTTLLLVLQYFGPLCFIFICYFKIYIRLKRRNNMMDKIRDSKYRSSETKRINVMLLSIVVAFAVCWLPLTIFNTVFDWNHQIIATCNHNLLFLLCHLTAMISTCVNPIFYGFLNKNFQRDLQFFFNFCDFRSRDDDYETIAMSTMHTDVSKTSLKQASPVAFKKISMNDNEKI
Kind of assay: 125I-PYY displacement, COS-7 membranes.

Assay [10] deals with T7, canine Y5 receptor (canine, UniProt O62729 1-446).
T7 construct: Transiently expressed in COS-7 cells; also called canine (beagle) Y5; BO11
T7 sequence: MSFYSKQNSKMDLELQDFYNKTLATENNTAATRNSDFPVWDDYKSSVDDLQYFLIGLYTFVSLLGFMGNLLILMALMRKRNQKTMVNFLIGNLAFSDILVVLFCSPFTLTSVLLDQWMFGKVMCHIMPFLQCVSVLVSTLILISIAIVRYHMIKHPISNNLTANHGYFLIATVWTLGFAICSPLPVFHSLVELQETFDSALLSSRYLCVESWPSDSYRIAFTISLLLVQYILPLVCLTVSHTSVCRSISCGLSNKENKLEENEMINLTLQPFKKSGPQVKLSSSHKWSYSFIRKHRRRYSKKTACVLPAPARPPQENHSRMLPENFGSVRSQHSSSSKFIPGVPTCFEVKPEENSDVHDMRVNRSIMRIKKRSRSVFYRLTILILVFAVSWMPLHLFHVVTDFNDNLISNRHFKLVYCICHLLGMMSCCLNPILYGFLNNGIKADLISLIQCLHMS
Kind of assay: 125I-PYY displacement, COS-7 membranes.

In assay [11] the target is T5, rat hypothalamic Y5 receptor. Kind of assay: 125I-PYY displacement, COS-7 membranes. The source holds these as a separate data set.
The target of assay [12] is T8, human Y1 receptor (human, UniProt P25929 1-384).
T8 construct: whole, on cells; stably transfected 293 cells for function
T8 sequence (looked up): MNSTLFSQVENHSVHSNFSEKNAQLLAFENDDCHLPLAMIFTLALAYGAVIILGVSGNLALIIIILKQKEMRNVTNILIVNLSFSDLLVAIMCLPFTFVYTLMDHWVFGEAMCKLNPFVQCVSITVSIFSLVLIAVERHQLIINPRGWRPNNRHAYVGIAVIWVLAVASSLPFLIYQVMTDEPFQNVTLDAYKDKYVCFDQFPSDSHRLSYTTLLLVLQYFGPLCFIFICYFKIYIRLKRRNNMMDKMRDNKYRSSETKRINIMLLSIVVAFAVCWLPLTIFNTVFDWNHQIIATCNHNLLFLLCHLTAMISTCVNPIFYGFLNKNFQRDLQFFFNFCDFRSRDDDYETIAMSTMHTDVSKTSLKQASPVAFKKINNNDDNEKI
Kind of assay: 125I-PYY displacement, COS-7 membranes.

The target in assay [13] is T8, human Y1 receptor. Kind of assay: 125I-PYY displacement, COS-7 membranes. The source holds these as a separate data set.
For assay [14], the target named is T3, rat Y4 receptor. Kind of assay: 125I-PYY displacement, COS-7 membranes. This is another data set of the same source.
Assay [15] has as its target T2, human Y5 receptor. Kind of assay: cell-based or functional assay.
The target of assay [16] is T7, canine Y5 receptor. Kind of assay: 125I-PYY displacement, COS-7 membranes. The source holds these as a separate data set.
The target in assay [17] is T2, human Y5 receptor. Kind of assay: 125I-PYY displacement, LM(tk-) membranes.

Where two headings read alike, the source gives them in different places. Ends that are not written are not given here. Some results are limits rather than exact numbers.

The term Ki denotes the dissociation constant of the complex between target and ligand, obtained from inhibition or displacement. Higher therefore signals a looser hold on the target.

T3 sequence (Q63447 whole entry): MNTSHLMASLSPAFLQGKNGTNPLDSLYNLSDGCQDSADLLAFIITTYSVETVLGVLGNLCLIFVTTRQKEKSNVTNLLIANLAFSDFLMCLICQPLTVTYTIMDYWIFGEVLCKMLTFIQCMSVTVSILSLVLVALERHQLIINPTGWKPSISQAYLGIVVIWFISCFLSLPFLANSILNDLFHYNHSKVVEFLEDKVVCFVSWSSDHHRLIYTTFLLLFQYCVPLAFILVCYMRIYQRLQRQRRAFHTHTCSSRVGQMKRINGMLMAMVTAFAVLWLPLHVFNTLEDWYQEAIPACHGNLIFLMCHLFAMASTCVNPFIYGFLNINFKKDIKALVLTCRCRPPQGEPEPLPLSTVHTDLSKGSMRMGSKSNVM
T4 sequence (P50391 whole entry): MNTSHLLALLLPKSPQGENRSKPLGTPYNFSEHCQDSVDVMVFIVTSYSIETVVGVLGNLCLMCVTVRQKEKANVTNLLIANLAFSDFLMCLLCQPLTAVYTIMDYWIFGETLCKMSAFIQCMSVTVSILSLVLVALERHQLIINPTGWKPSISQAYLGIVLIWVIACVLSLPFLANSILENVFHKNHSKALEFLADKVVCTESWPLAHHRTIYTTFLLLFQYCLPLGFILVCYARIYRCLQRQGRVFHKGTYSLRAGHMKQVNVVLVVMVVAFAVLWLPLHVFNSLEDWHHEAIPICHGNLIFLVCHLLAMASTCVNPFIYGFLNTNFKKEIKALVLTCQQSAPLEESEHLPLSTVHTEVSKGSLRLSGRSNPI

B1: porcine NPY22-36 (peptide, UniProt P01304 31-45, looked up)
peptide: SALRHYINLITRQRY
notes: range 22-36; Range counted on the mature peptide
Molecule B1 displayed an inhibitory constant (Ki) with rat Y2 receptor of 54 nM.

B2: human PP31-36 (peptide, UniProt P01298 60-65, looked up)
peptide: LTRPRY
notes: range 60-65; Range counted on the mature peptide
As for B2, the Ki in the assay with human Y5 receptor [1] is 41000 nM; with rat Y4 receptor [2], 26 nM.

B3: human PP13-36 (peptide, UniProt P01298 42-65, looked up)
peptide: TPEQMAQYAADLRRYINMLTRPRY
notes: range 13-36; Range counted on the mature peptide
Regarding B3, the Ki in the assay with human Y4 receptor [3] came to 39 nM; in the assay with human Y4 receptor [4], 39 nM; with human Y5 receptor [5] it was 720 nM; in [6] it was 290 nM; with human Y5 receptor [7] it was 720 nM; in assay [8] it was 84 nM.
For FLRF (C-terminal amide) [FLRF-amide], the “EC50, inhibition of forskolin-stimulated cAMP accumulation, 293 cells” value (shortened to “EC50, inhibition … 293 cells”) in assay [9] was 13000 nM. For the same molecule, the results for the inhibitory constant (Ki) (in [8]; with rat Y1 receptor) were 5500 nM and 45000 nM, respectively.

B4: porcine NPY13-36 (peptide, UniProt P01304 22-45, looked up)
peptide: PAEDLARYYSALRHYINLITRQRY
modifications: ends and bridges not checked
notes: range 13-36; Range counted on the mature peptide; also called NPY13-36, porcine
Consider B4, for which the inhibition constant (Ki) with canine Y5 receptor [10] came out at 120 nM; with rat Y1 receptor it was 190 nM; with rat Y2 receptor, 31 nM.

B5: porcine NPY16-36 (peptide, UniProt P01304 25-45, looked up)
peptide: DLARYYSALRHYINLITRQRY
notes: range 16-36; Range counted on the mature peptide
In the case of B5, the Ki in the assay with human Y5 receptor [1] stood at 180 nM; in assay [6] it was 260 nM; in the assay with human Y5 receptor [7] it was 300 nM; in assay [8], 260 nM; in the assay with rat Y1 receptor, 140 nM; with rat Y2 receptor, 35 nM. The same molecule gave a Ki with rat Y4 receptor [2] of 200 nM.
Molecule APSEPHHPGDQATQDQLAQYYSDLYQYITFVTRPRF (ends and bridges not checked) [frog PP (rana temporaria)] had an inhibition constant (Ki) with rat Y1 receptor of 720 nM.
As to APLEPMYPGDYATHEQRAQYETQLRRYINTLTRPRY (peptide, UniProt P06303 30-65, looked up, mature; also called PP, rat) [rat PP], the Ki came out at 160 nM with canine Y5 receptor [10]; 180 nM in [11]; 0.16 nM in the assay with human Y4 receptor [3]; 450 nM with human Y1 receptor [12]; 0.16 nM with human Y4 receptor [4]; 450 nM with human Y1 receptor [13]. Besides, the Ki with human Y5 receptor [5] is 630 nM; with human Y5 receptor [1], 130 nM; with rat Y4 receptor [14], less than 0.2 nM; in assay [6], 230 nM; with human Y5 receptor [7] it was 630 nM; in [8] it was 230 nM. Besides, the “EC50, inhibition … 293 cells” value in assay [9] came out at 130 nM.

B6: human PP2-36 (peptide, UniProt P01298 31-65, looked up)
peptide: PLEPVYPGDNATPEQMAQYAADLRRYINMLTRPRY
notes: range 2-36; Range counted on the mature peptide
For the molecule B6, the inhibition constant (Ki) in the assay with human Y5 receptor [5] and with human Y5 receptor [7] was 2.1 nM throughout. In addition, the “EC50, inhibition of forskolin-stimulated cAMP accumulation, LM(tk-) cells” value in the assay with human Y5 receptor [15] amounted to 2 nM.

B7: human PP (peptide, UniProt P01298 30-65, looked up)
peptide: APLEPVYPGDNATPEQMAQYAADLRRYINMLTRPRY
notes: mature; also called PP, human; human pancreatic polypeptide
Consider B7, for which the inhibitory constant (Ki) was 6.3 nM with canine Y5 receptor [10]; 5 nM in assay [11]; less than 10 nM in the assay with canine Y5 receptor [16]; less than 0.2 nM with rat Y4 receptor [14]; 5 nM in [6]; 5 nM in assay [8]. For the same molecule, the affinity with rat Y4 receptor [2], expressed as Ki, was 0.04 nM.
As for APLEPEYPGDNATPEQMAQYAAELRRYINMLTRPRY (peptide, UniProt P01302 30-65, looked up, mature; also called PP, bovine) [bovine PP], the Ki was 10 nM with canine Y5 receptor [10]; 7.9 nM in the assay with human Y5 receptor [17]; 5 nM in the assay with human Y5 receptor [1]; 8.4 nM in [6]; 1.6 nM with human Y5 receptor [7]; 8.4 nM in assay [8]. In the assay with rat Y1 receptor, this molecule came in with a Ki of 120 nM. The “EC50, inhibition … 293 cells” value in assay [9] turned out to be 5.7 nM.
Turning to APLEPVYPGDNATPEQMAQYAADLRRYINMITRQRY (peptide, UniProt P01298 30-65, looked up, ends and bridges not checked, mature) [human [Ile^31, Gln^34]PP], in the assay with human Y5 receptor [7], the affinity, expressed as Ki, was 2 nM. In addition, the “EC50, inhibition of forskolin-stimulated cAMP accumulation, LM(tk-) cells” value with human Y5 receptor [15] worked out at 5.6 nM.

B8: human PYY13-36 (peptide, UniProt P10082 41-64, looked up)
peptide: SPEELNRYYASLRHYLNLVTRQRY
notes: as for B3
On to B8, for which the Ki with rat Y1 receptor was 130 nM.

These data come from US6713265 (SYNAPTIC PHARMACEUTICAL, dated 2004).
